Measurements reported in patent US20200230166A1, “Oligonucleotides in food, beverage, cosmetic and medicinal formulations” (DNA Essence GmbH, priority 2015, published 2020).

Type: in vitro ADME
Method: In order to simulate the effect of digestion and oligonucleotide uptake without human trials and without harming endangered species, in vitro gastro-intestinal digestion experiments were performed. […] In short, oral, gastric and intestinal passage were simulated by emulating their respective chemical and enzymatic compositions.
The integrity of the oligonucleotides after in vitro digestion was determined through realtime PCR. Quantification of full length genes was performed using the Applied
Biosystems 7500 (Thermo Fisher Scientific Inc.) with the gScript™ One-Step SYBR® Green qRT-PCR Kit, ROX™ (QuantaBio Inc.) and oligonucleotide primers (Prim_SEQ1 for [ATGCCCTTGTCCAGTC], Prim_SEQ1 rev[CTAGAAAGCACAGCTG]) annealing (53° C.) at the ends of the full length gene. […] In order to simulate the in vitro passage of a traditional extract, a piece of dried beef meat (“beef jerky”, Bos taurus) was used and oligonucleotides for the corresponding growth factor 1 (GenBank: V00111.1) derived (for [acggctcagg gtccgtgaca], rev [ctaataaaat gaggaaattg]). Dried beef samples were rinsed in deionized, sterile water for 14 hours at 21° C. followed by an incubation with proteinase K (400 ng/mL, P2308 Sigma-Aldrich, USA) and guanidine hydrochloride (5 mol/L, CAS Number: 50-01-1) in 1 mL volume for 12 h at 55° C. […]

B1: SEQ ID NO: 1: growth hormone 1 (GH1) of Panthera tigris altaica (tiger) (nucleic acid)
DNA: ATGCCCTTGTCCAGTCTGTTTGCCAACGCCGTGCTCCGGGCCCAGCACCTGCACCAGCTGGCCGCCGACACCTACAAAGAGTTTGAGCGGGCGTACATCCCGGAGGGACAGAGGTATTCCATCCAGAACGCGCAGGCTGCCTTCTGCTTCTCGGAGACCATCCCGGCCCCCACGGGCAAGGACGAGGCCCAGCAGAGATCCGTGAGTGGCCAGGGGCGCCCGGCCAAGGATCAGGGGCCTCCCTCGTCTGCAGGAGTCAGGCCCTGGGCAGCCTTCTCCCTGGGGCCGAGGGTGTGCAGGGAGGCAGACTGGGCCTCTCCGTCCCTCTTCCCCTTTTTGCAGGAGCTGGAAGATGGCAGCCCCCGGGCCGGGCAGATCCTGAAGCAAACCTACGACAAGTTTGACACAAACTTGCGCAGTGACGACGCGCTGCTCAAGAACTATGGGCTCCTGTCCTGCTTCAAGAAGGACCTGCACAAGGCTGAGACGTACCTGCGGGTCATGAAGTGTCGCCGCTTCGTGGAAAGCAGCTGTGCTTTCTAG
modifications: Panthera tigris altaica
- detection of full length gene oligonucleotide by realtime PCR: easily detectable amounts
- crossing point (CP) of full length oligonucleotide in realtime PCR (after passing through the in vitro digestion assay, 1 million oligonucleotide molecules or more, of 40 cycles): 23 cycles
